Laboratory results: patent US7338932
Values belong to the substance of their own block, whether it stands above or below them.

Legend:
[1] = biological target: EA2 acceptor peptide (…) (rat); experiment: cell-based or functional assay
[2] = system: MUC7 acceptor peptide (Ac-CPPTPSATTPAPPSSSAPPETTAA)
[3] = system: EA2 acceptor peptide (PTTDSTTPAPTTK)
[4] = biological target: MUC2 acceptor peptide (…) (human); experiment: cell-based or functional assay
Sequence of MUC2 acceptor peptide (…) (human) (peptide, as listed by the source): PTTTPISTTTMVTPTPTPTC

Sequence of purified human recombinant GalNAc-T2 (enzyme source of Examples 1-6) (chain, as listed by the source): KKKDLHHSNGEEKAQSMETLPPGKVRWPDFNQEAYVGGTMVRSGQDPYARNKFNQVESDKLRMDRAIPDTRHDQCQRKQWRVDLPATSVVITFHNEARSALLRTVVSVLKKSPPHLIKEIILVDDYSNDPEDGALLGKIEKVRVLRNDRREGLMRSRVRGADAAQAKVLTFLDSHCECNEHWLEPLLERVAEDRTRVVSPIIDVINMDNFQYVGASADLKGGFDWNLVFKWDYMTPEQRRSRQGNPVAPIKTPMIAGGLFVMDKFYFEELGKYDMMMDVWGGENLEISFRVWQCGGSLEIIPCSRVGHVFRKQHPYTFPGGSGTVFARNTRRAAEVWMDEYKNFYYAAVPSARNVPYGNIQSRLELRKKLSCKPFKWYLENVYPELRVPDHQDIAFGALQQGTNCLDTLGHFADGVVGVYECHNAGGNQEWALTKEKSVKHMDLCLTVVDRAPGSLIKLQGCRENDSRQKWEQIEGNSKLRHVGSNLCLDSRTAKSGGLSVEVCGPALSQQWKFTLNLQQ

galactosyltransferase activity with UDP-Gal donor substrate, no inhibitor [1]: 6.3 nmol/min/mL
Substance: human recombinant GalNAc-T3 (enzyme source of Example 6) (from UniProt Q14435 52-633)

Substance: purified human recombinant GalNAc-T2 (enzyme source of Examples 1-6)
GalNAc-T2 activity with UDP-Gal [2]: Muc7, 13 nmol/min/ml
GalNAc-T2 activity with UDP-Gal [3]: EA2, 1.5 nmol/min/ml

galactosyltransferase activity with UDP-Gal donor substrate, no inhibitor [4]: 90 nmol/min/mL
Substance: purified human recombinant GalNAc-T2 (enzyme source of Examples 1-6) (from UniProt Q10471 52-571)
